Experimental data: patent publication US20240067932A1, “METHODS AND COMPOSITIONS FOR GENERATING HEMOGENIC ENDOTHELIAL CELLS FROM PLURIPOTENT STEM CELLS” (Trailhead Biosystems Inc., priority 2022, published 2024)

How the values were obtained:
[1] = tested on: early mesoderm progenitors; experiment: 8-factor HD-DoE experiments optimized for maximum GATA2 expression (qPCR, partial least squares models); assay type: cell-based, human; details: fifth model, FIG. 6; factors VPA, SCF, BMP4, EFG, FLT3L, Arginine, Retinoic Acid, VEGF
[2] = tested on: early mesoderm progenitors; experiment: Factor criticality / dynamic profile analysis of gene expression on removal of a finalized effector; assay type: cell-based, human; parameters: expression level of GATA2 / expression level of TAL1 / expression level of CD44 / expression level of KDR / expression level of CD34 / expression level of CD31: unit not given here
[3] = model FIG. 11, named factor removed

B1: BMP4: BMP pathway agonist (protein, UniProt P12644 293-408, looked up)
Bone morphogenetic protein 4: SPKHHSQRARKKNKNCRRHSLYVDFSDVGWNDWIVAPPGYQAFYCHGDCPFPLADHLNSTNHAIVQTLVNSVNSSIPKACCVPTELSAISMLYLDEYDKVVLKNYQEMVVEGCGCR
With B1 the “factor contribution (maximum expression of GATA2)” value [1] was 31, the “expression level of GATA2” value ([2]; model FIG. 11 (Retinoic Acid, BMP4, VEGF), factor present) was 519 and the “expression level of CD31” value ([2]; model FIG. 11, factor present) was 768. The “expression level of CD34” value ([2]; model FIG. 11, factor present) was 3971, the “expression level of FLI1 (Fill [sic])” value ([2]; model FIG. 11, factor present) was 3250 and the “expression level of KDR” value ([2]; model FIG. 11, factor present) was 17667. The “expression level of TAL1” value ([2]; model FIG. 11, factor present) was 490, the “expression level of CD31” value [2, 3] was 682 and the “expression level of CD34” value [2, 3] was 3455. For the same molecule, the “expression level of FLI1 (Fill [sic])” value [2, 3] was 2213, the “expression level of GATA2” value [2, 3] was 338 and the “expression level of KDR” value [2, 3] was 10025. For the same molecule, the “expression level of TAL1” value [2, 3] was 422.
